# T1: rUR DNA-binding domain (UR-DBD) (Rattus norvegicus, UniProt Q62755 SEQ:72-168)
# T1 sequence: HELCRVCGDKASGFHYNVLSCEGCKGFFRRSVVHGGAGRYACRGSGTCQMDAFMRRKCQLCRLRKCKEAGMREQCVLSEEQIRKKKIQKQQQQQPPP
# Key:
# [1] = biological target: human retinoid X receptor alpha (hRXRα) (human) (UniProt P19793)
# [2] = biological target: T1, rUR DNA-binding domain (UR-DBD); assay: EMSA; monomer plus homodimer; optimum homodimer spacing, supershifted by hinge antibody; details: tags: His tag, pET15b fusion, E. coli; label: 32P; 4-nt 5' overhangs
# Description: (§1) The DNA-binding ability of this domain was tested by gel-shift analyses with a set of oligonucleotides that contained AGGTCA direct repeats with 0 to 6 oligonucleotide spacing (shown above).
# (§2) A segment of UR containing the DBD and a few amino acids of the hinge region (rUR amino acid residues 72 to 168) was expressed as a fusion protein using the E. coli expression vector PET15b and purified by affinity (Ni^+2/His-tag) chromatography. The DNA-binding ability of this domain was tested by gel shift analysis with a set of oligonucleotides that contained AGGTCA direct repeats with 0 to 6 oligonucleotide spacing. The UR fusion protein bound to all these direct repeats as a monomer, and optimum spacing for homodimer binding was 4 and 5 nucleotides, which is identical to a retinoic acid receptor response element (RARE). A hinge region peptide antibody super-shifted UR DBD homodimers bound to DR-4 and DR-5. Supershifting of monomer was not observed.
# [3] = biological target: T1, rUR DNA-binding domain (UR-DBD); assay: EMSA; monomer binding; details: tags: His tag, pET15b fusion, E. coli; label: 32P; 4-nt 5' overhangs
# Description: as §1, §2
# [4] = biological target: T1, rUR DNA-binding domain (UR-DBD); assay: EMSA; monomer plus homodimer; homodimer best on DR-4 and DR-5, supershifted by hinge antibody; details: tags: His tag, pET15b fusion, E. coli; label: 32P; 4-nt 5' overhangs
# Description: as §1, §2
Molecule,binding result [3],other results
"rat ubiquitous nuclear receptor (rUR), full-length",–,"CAT activity of a DR-4 CAT reporter in COS-1 cells, absence of 9c-RA [1]: 4 to 5 fold"
DR-5 (dsDNA) DNA 1: GATCCTCAGGTCACCAGGAGGTCAGAAGCT DNA 2: AGCTTCTGACCTCCTGGTGACCTGAGGATC,–,binding result [2]: binds
DR-2 (dsDNA) DNA 1: GATCCTCAGGTCAAGAGGTCAGAAGCT DNA 2: AGCTTCTGACCTCTTGACCTGAGGATC,binds,–
DR-3 (dsDNA) DNA 1: GATCCTCAGGTCAAGGAGGTCAGAAGCT DNA 2: AGCTTCTGACCTCCTTGACCTGAGGATC,binds,–
DR-0 (dsDNA) DNA 1: GATCCTCAGGTCAAGGTCAGAAGCT DNA 2: AGCTTCTGACCTTGACCTGAGGATC,binds,–
DR-6 (dsDNA) DNA 1: GATCCTCAGGTCACCAAGGAGGTCAGAAGCT DNA 2: AGCTTCTGACCTCCTTGGTGACCTGAGGATC,binds,–
DR-1 (dsDNA) DNA 1: GATCCTCAGGTCAGAGGTCAGAAGCT DNA 2: AGCTTCTGACCTCTGACCTGAGGATC,binds,–
DR-4 (dsDNA) DNA 1: GATCCTCAGGTCACAGGAGGTCAGAAGCT DNA 2: AGCTTCTGACCTCCTGTGACCTGAGGATC,–,binding result [4]: binds

# — US5639616, “Isolated nucleic acid encoding a ubiquitous nuclear receptor” (Arch Development Corporation)
